Data published in the DeepSol protein solubility set.

Assay: soluble on expression in E. coli; label from the status in PepcDB or PDB records

Sequence	soluble on expression in E. coli
MGSDKIHHHHHHMSTPIGLGLPPTPPPVLAPRRKTRQLMVGKVGVGSDHPISVQSMTTTKTHDINGTLQQIAQLTATGCDIVRVACPKTVDAEALPIIAKKSPIPVIADIHFQPKYIFAAIDAGCAAVRVNPGNIKEFDGRVKEVAKAAGDAGIPIRIGVNGGSLDKRILDKYHGKATPEALVESAMWEAGLFEEHGFGDIAISVKHSDPVLMVEAYRQLAEQSDYPLHLGVTEAGPKFMGTIKSSVAFGALLSQGIGDTIRVSLSADPVEEIKVGDQILQSLNLRPRKLEIVSCPSCGRAQVDVYSLAEEVTEALDGMEVPLRVAVMGCVVNGPGEARDADLGVASGNGKGQIFVKGEVIKTVPESQIVETLIEEAMRIAEEMDPEVLAAASASGMKAEVKVTK	not soluble
MSIEIKTNSVEPIRHTYGHIARRFGDKPATRYQEASYDIEAKTNFHYRPQWDSEHTLNDPTRTAIRMEDWCAVSDPRQFYYGAYVGNRAKMQESAETSFGFCEKRNLLTRLSEETQKQLLRLLVPLRHVELGANMNNAKIAGDATATTVSQMHIYTGMDRLGIGQYLSRIALMIDGSTGAALDESKAYWMDDEMWQPMRKLVEDTLVVDDWFELTLVQNILIDGMMYPLVYDKMDQWFESQGAEDVSMLTEFMRDWYKESLRWTNAMMKAVAGESETNRELLQKWIDHWEPQAYEALKPLAEASVGIDGLNEARAELSARLKKFELQSRGVSA	soluble
MSLTDLIDIHCHLLPAVDDGSKSIEETLSLIDLLEEIGVKQHILTPHIMEEYPSNDAIFLRARFEELLAAITPDKASRLRLAAEYMLDVAFLDRLAEPLLTLGDRYILVETSYMAPPIGLMGLLADLRFKGLSPVLAHPERYLYMEEKDYVAIKKQGVMFQLNLFSLFGAYNSSASEKAYALLEAGYYDLIGTDIHHLQPIARLLSEASLPPDLEGKIKSLVENNTRLFSEGHHHHHH	not soluble
TLTIYPAAKPNGLAVVACPGGGYIRLAMNHEGHDMADWFNAQGITYAVLKYRMPNGHHDVPLSDAHQAIRLMREHANEWHIQKVGIMGASAGGHLASTAATHYTAGTRPDFQILFYPVISMDLSNCHKGSRDNLLGKSPSEELVRLYSNELQVTGDTPPAFIMHSSDDGAVPVSNSVSYYLALVKNKVPASLHTYPIGGHGWGFRDSFTYKRQWTGELEKWLREIL	not soluble
MSQLLLNLEGKTKIKAIARKNDLCERKSSNLHHFCVEFHNNYEFLEIGLSEARSLASISDKNVLNSNRKAENYQKKWKNFEKESILKLNSIMEKISSHSQPSHHHTNASITLPYDATIQKIAEKEKNLSKLLKELSIVDSSLKEEKASFEKTQSALLKEKGKIEKDKLMLREEAQKQASMNAEVQKKELESQERLSVLNKQFMEENEKKVKLEQEELDSKNAYNDCLQLNIPNAESQMITDQLATLDEFYSDLNNNSSNEIMAEIPDFEEIIDLFNQFKSSMESQKDILNTLAGLEEQLGDHQLEIKSVRKDINKLKGLQGKQSFYKEELKLKKSALEEIQRKIDYDQDVLNSLKVVEKAAKPDDYLRPRNSRKESVFRKLPIPERSMQHDSDTLDTRKNSKTMLKNESTRHSNPGIRLLKVPNRDSDEESENSFDDGTTQDESGVNAFFGQLSDEKEESPTAVEFSMAAHLTEFSQRQAAAAAKMNMKTPEKKVVEIESDEDDDLDSSIIAPNRAKSKDDRKSDDSDDDLNDEEGDADQSIWGSDD	not soluble
MSLTLKLLAEVAGEKVSRFDNKGDIWYDLISAVHKSIRGSNPDAALYWSARMIAAGCDPLYIARRLLAIASEDVGNADPRAMQVALSAWDCFTRVGPAEGERAIAQAIVYLACAPKSNAVYTAWKQALSDAHNLPEFEVPFHLRNAPTGLMKDLGYGEGYRYAHDEPGAYAAGEQYLPAEIDDRKYYQPTNRGLESKIAEKLDYLANLDANSPQKRYEEGHHHHHH	not soluble
MDVRPYEGGRFEKIGSEEAHTIETFERRIHGTPHSEPQRQVSSKQYTERRTYGRDENGEIVVKIEKNPSEPVRPASPVRPVTPVGGENELSRHLLQPIQPLHIPRIDIQPANSSRHASPRHKLQYDEVSPRSGSINMLSPRSGHSASSRSGAGSRQSNVSVNSANVPLKKVTKKSRFVSIHDGRPVSPYTETVSFEVAIPFQPDRYSSASARSFSSSPHVSRRPSECAYLMENPLYQD	not soluble
MAVNVYSTSVTSDNLSRHDMLAWINESLQLNLTKIEQLCSGAAYCQFMDMLFPGSIALKKVKFQAKLEHEYIQNFKILQAGFKRMGVDKIIPVDKLVKGKFQDNFEFVQWFKKFFDANYDGKDYDPVAARQGQETAVAPSLVAPALNKPKKPLTSSSAAPQRPISTQRTAAAPKAGPGVVRKNPGVGNGDDEAAELMQQVNVLKLTVEDLEKERDFYFGKLRNIELICQENEGENDPVLQRIVDILYATDEGFVIPDEGGPQEEQEEY	soluble
MNTDEYYMRLAMEEAKKAEQIGEVPIGAVIVQDGRVIARAHNLRETEQRAIAHAEILAIDEACRATGSWRLERATLYVTLEPCAMCAGAIVLSRIERVVFGAFDPKGGCAGTLMNLLQESRFNHQVKVVSGVLADECGSLLSQFFRRLREQKRNVGGSANENSVD	not soluble
MLKQVEIFTDGSCLGNPGPGGYGAILRYRGREKTFSAGYTRTTNNRMELMAAIVALEALKEHCEVILSTDSQYVRQGITQWIHNWKKRGWKTADKKPVKNVDLWQRLDAALGQHQIKWEWVKGHAGHPENERCNELARAAAMNPTLEDTGYQVEV	soluble
GPGSMMELPMEMNVDGVPMVLSKVSYSPMLDFGGTFSYRRYCFVGELQPEGYVNWFFAPLEGYKDKRLRVHESAVKEGALNHLVFMRLGELSFRQYKLKHIPSPTEQPHSPVTPQGDSTKQLMGHAHPHFNYIFEAMRQDQASSPSPRSSSIGSDCTYHSSKESCESLQMSSSLVDLPGKRLSNASLRSGVRPPLEARRGAVCDDEGFLPPVRSLKKSSERSQEL	not soluble
AHHHHHHGSEKPRFKGHLKLLILKLLEENPLHGYGIMTRLEETFGIKVSPGAIYPILSSLRKSGLIEVAGEGKREKKLHKITEKGREYLRKHEDEVKEALEIANKLKEFSELGGKEVAQVLREVVENIDKLSEEQKAALAREFSNFVKRIKLILLGGEQYGGNNSGEPR	soluble
MSLRLVKTALTIAGSDSGGGAGIEADLKTFTAFGVHGLVAITSVTAQNTQAVTAIHDIPPDVVSEQIRAVAEDIGVDAAKTGMLSNAEIIKAVAKTVKNYDFPLVVDPVMIAKSGAPLLREDAVDALIKYILPLATLVTPNRFEAEKLSGMKIRTVEDAKIAAKKIAEETGAKAVIVKGGHIEGEEAIDVLYHNGSYRLYRAPKVEGCTHGTGCSFSAAITANLAKGFGLEDAIEVAKKFITLGIAMGHRIGHGHCPVNQSAWIEIPAEKWRIYEELTRAVREFEEMNPVKFIPEVGTNFVYSLPLPYARTRDDVAGVKGRIVRVGNEVRAVGPVEFGASDHLARAVLTFMKFYPEYRSAINIRYSEETVRLAEEQGLVVSFYDRREEPEEIKEREGATIPWGIESAIKRVKQRPDVIYHLGDVGKEPMILIFGRNPREVLDKLRLEGHHHHHH	soluble
MGSDKIHHHHHHMNHYVEGKLLIIGGAEDKKGECKILKRFIQEAGGRESRVVVLTAATEMPEQVGSEYKELFENLGAAEVQVLDIAERVSANRESISQELQKATGIFFTGGDQLRITGILGGTRLGRTLHNLYQRGVIIAGTSAGASVMSDTMIVGGEAGTPKKDTLTMAPGLGLLHSVVVDQHFAQRGRIGRLLTAIAQNPYVLGVGIDEDTSILVYSDGHFTVVGSQTVTVVDASPTMASNVSEISPGQALVLTPVLMHILSDGYRFDLKRRAASLNETPSGG	not soluble
VAATKASTATDEPVKRTATKSPAASASGAKTGAKRTAAKSASGSPPAKRATKPAARSVKPASAPQDTTTSTIPKRKTRAAAKSAAAKAPSARGHATKPRAPKDAQHEAATDPEDALDSVEELDAEPDLDVEPGEDLDLDAADLNLDDLEDDVAPDADDDLDSGDDEDHEDLEAEAAVAPGQTADDDEEIAEPTEKDKASGDFVWDEDESEALRQARKDAELTASADSVRAYLKQIGKVALLNAEEEVELAKRIEAGLYATQLMTELSERGEKLPAAQRRDMMWICRDGDRAKNHLLEANLRLVVSLAKRYTGRGMAFLDLIQEGNLGLIRAVEKFDYTKGYKFSTYATWWIRQAITRAMADQARTIRIPVHMVEVINKLGRIQRELLQDLGREPTPEELAKEMDITPEKVLEIQQYAREPISLDQTIGDEGDSQLGDFIEDSEAVVAVDAVSFTLLQDQLQSVLDTLSEREAGVVRLRFGLTDGQPRTLDEIGQVYGVTRERIRQIESKTMSKLRHPSRSQVLRDYLD	soluble
MSSPARQYRGRSSEQRAAERRARLLEAGLQVFGTVGGEKATMTAICAEAKLTERYFYESFRDRDDLLVQVIEGIAAEIAEAARVTLQTVTGDPEVRARAAIATFVDILTADPRKGRVSIIESAAAEPLRTRRRELLRAFALLVAEESKELYGDRAWSSPQDEITALLFVGGLAELMTAWLNGEIEVSPEQIVDAATYQFTSTAHR	not soluble
MGSDKIHHHHHHMSDEGRHKPTSAPNRVFMMKGMDKLRYQQDFLNIRPIFTAGEQEYLTGLSDRLPLSVLTGSVRNIEEIGIDFVYSSAKLEGNTYNQYDTQALLKLGQTAGGKLYSDAVMLINLRESYRHLLSGLDSPEPFDWLDFLKTTHSLISENLLEKGSGGVVRRDSVTISGTDYTPLSNPQSLDTELKWLLQEAPKIENPFDRAVYLHNNLAYLQYFKDCNKRTARNCMTLSLMRSGFFPCVFSPDSYPAYAEAVVAYYETGDYGLFKKYFISAYENTVNKYGPQPDMDIFRNFSL	not soluble
MQGKALQDFVIDKIDDLKGQDIIALDVQGKSSITDCMIICTGTSSRHVMSIADHVVQESRAAGLLPLGVEGENSADWIVVDLGDVIVHVMQEESRRLYELEKLWS	soluble
MSLTITENPYRLSLDIEGIGFQTADAIATSLGVAKNSLMRAEAGISHVLGELSQNGHCAVPEETLIDEASRLLQIDHPLVVEAVKNEKLTRRIVGETIDGVPCIFLESLHRAETGVASGLHRLMRGPLPWNALDPHDALPWIEETTALELSPSQRSAVTLVLASKVSIITGGPGVGKTTILKAILSVLQREKVSVALCAPTGRAAKRLTESTGIEAKTIHRLLEFDPQAFDFKRGRGNPLDASFVVVDETSMVDVVLMQKLVAAIPDHAAVVFVGDVDQLPSVGPGAVLADMISSEAIPTVRLTEIFRQAAESMIVVNAHRINQGDMPLTEGHHHHHH	soluble
MGHHHHHHGGHMSLDMKLQQVQVLKPQLTQELRQAITLLGYHSAELAEYIDELSLENPLIERKETDTPPLSYHKTNKNRMNAQEAGLQLSNPQKTLQDALKQQSLDMNLTNTEKKIFNYLIHSLDSNGYLEEDIEEAARRLSVSAKEAEAVLAKLQSLEPAGIGARSLQECILLQLQRLPNRNEQAEMLVSAHFDAFAQKKWKTLSVETGIPLHTIQDISDDIAALHPRPGLLFARPEQDVYIEPDIFITVKNGHIAAELNTRSFPEIDLHPQYRTLLSSGSCQDTVSYLSAKYQEWRWLSRALRQRKQTITRIINELITRQKDFFLKGRSAMKPLTLREVADCLSLHESTVSRAIKGKTIQTPYGLFEMKLFFSAKAEASGDGDASNYAVKTHLENLINQEDKTKPLSDQKLVDLLYEQHGIQISRRTVAKYRDQMNIPSSAARKRYKEGGS	soluble
MHNIYFYKDKNGNEPVFDYMRELTSKKGKDSRIKLNKINDYIELLSQHGTRAGEPYIKHLDAEIWELRPLRDRILFVAWMDGSFVLLHHFMKRTQKTPKREIEQAKRELADLKERGLDNEK	not soluble
